Assay results as given in patent publication US20230035798A1 (CAPELLA BIOSCIENCE, published 2023).

T1: recombinant human soluble LIGHT, amino acids 74-240 (R&D Systems 664-LI-025) (human, UniProt O43557 74-240)
T1 chain: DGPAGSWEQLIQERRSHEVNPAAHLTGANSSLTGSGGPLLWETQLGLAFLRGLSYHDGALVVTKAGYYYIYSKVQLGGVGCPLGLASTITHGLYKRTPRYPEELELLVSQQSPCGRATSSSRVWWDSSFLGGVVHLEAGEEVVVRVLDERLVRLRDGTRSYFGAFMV

T2: membrane LIGHT S193A (human, UniProt O43557 1-240)
T2 chain: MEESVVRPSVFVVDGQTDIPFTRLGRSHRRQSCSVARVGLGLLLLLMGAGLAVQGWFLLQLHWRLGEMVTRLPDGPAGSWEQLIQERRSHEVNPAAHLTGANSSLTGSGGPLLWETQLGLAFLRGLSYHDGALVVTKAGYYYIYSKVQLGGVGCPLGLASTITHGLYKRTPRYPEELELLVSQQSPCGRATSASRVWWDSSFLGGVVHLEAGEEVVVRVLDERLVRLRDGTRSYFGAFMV

T3: membrane LIGHT R195A (human, UniProt O43557 1-240)
T3 chain: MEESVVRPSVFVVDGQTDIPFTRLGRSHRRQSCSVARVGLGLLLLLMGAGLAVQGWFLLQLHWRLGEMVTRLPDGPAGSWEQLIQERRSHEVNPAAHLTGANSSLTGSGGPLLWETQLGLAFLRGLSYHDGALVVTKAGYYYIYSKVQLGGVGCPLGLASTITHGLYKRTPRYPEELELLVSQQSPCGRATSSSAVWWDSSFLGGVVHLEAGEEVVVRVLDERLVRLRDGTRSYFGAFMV

T4: membrane LIGHT V196A (human, UniProt O43557 1-240)
T4 chain: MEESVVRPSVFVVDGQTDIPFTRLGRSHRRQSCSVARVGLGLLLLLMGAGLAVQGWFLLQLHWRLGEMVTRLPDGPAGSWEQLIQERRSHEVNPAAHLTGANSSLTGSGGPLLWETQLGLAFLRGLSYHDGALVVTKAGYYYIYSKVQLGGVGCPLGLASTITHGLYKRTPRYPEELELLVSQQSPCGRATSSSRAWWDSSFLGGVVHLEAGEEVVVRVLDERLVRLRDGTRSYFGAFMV


What was measured:
[1] = target: T1, recombinant human soluble LIGHT, amino …; assay: cell-based or functional assay
[2] = target: membrane LIGHT without residues 81-84 (EL4-NC-LIGHT cells) (human, UniProt O43557 1-240); assay: cell-based or functional assay
Chain of membrane LIGHT without residues 81-84 (EL4-NC-LIGHT cells) (O43557 other isoform, or with tags, fused parts or gaps): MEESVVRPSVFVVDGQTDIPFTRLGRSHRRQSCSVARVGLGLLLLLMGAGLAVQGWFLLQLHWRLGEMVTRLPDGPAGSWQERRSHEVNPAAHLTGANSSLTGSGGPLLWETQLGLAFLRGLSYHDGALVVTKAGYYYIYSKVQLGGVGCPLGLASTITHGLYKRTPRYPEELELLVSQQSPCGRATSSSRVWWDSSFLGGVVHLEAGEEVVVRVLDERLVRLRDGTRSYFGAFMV

membrane LIGHT S193A = target: T2, membrane LIGHT S193A; assay: flow cytometry, transfected HEK293FF, mAb at EC50
Method: (§1) The day of transfection the cells were seeded in a 24-well plate at 0.6×10⁶ cells/well. Lipofectamine 2000 (ThermoFisher scientific), 3 μl, was mixed with 50 μl OptiMEM medium (GIBCO) and then added to 50 μl Opti-MEM medium containing 3 ug plasmid DNA and incubated for 20 min at RT to form DNA-Lipofectamine 2000 complexes which were then added to the HEK293FF cells and incubated at 37° C., 5% CO₂ for 24 hours. For each construct, in duplicate, 0.60×10⁶ cells/well were used in a 96 well round bottom plate. Cells were centrifuged for 3 minutes at 300×g at 4° C., the supernatant discarded and the cells washed with 150 μl FACS buffer (0.5% FBS in phosphate buffered saline). This process was repeated 3 times. […] The wells were washed 3 times as above and 50 μl/well of goat anti-human IgG FITC (1:1500 dilution in FACS buffer, SIGMA F9512-2ML) or goat anti-mouse APC (1/500 dilution in FACS buffer, BDBioscience 550826), as appropriate, was added to the wells and incubated for 30 min at 4° C. protected from the light, with shaking. The cells were then washed as above, resuspended in 100 μl of FACS buffer and binding of the antibodies to the constructs was measured using flow cytometry and a total of 10,000 cells were acquired for each sample. Controls of buffer and secondary antibody only as well as HEK293FF non transfected cells were also used.

membrane LIGHT R195A = target: T3, membrane LIGHT R195A; assay: flow cytometry, transfected HEK293FF, mAb at EC50
Method: as §1

membrane LIGHT V196A = target: T4, membrane LIGHT V196A; assay: flow cytometry, transfected HEK293FF, mAb at EC50
Method: as §1

[3] = target: T5, human LIGHT (TNFSF14), full length, membrane-bound (214E allele) (human, UniProt O43557 1-240); assay: flow cytometry, transiently transfected HEK293FF cells
T5 construct: also called membrane LIGHT; human membrane LIGHT
T5 sequence (O43557 whole entry K214E): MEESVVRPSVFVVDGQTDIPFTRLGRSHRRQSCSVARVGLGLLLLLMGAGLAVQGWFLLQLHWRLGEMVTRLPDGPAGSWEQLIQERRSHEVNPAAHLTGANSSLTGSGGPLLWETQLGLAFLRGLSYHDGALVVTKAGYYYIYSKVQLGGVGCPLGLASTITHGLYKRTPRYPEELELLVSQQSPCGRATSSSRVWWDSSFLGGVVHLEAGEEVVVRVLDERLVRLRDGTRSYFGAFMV
Source text: In order to compare the cross-reactivity of the mAbs to both human and cynomolgus LIGHT, transiently transfected human or cynomolgus LIGHT-HEK293FF cells were utilised in which approximately 50% of the cells expressed LIGHT and bound mAb was detected with goat anti-human IgG FITC. The EC50 of each mAb is depicted in Table 6 after correction for background binding to untransfected cells. (Note that when the relationship between receptor occupancy and response is linear, EC50 may be equivalent or substantially equivalent to KD).

[4] = target: T5, human LIGHT (TNFSF14), full length, …; assay: DcR3-His (1 nM) competition, EL4-LIGHT, flow cytometry; 100 nM
Method: EL4-LIGHT cells (0.25×10⁶) were preincubated with anti-membrane LIGHT mAbs (0-300 nM) for 15 min at 4° C. followed by incubation with DcR3-His tagged (1 nM, Creative BioMart; ref: TNFRSF6B-552H, lot: 962512) for 30 min at 4° C. The samples were then incubated with mouse anti-histag antibody (diluted 1:500, Biolegend, cat. no. 652502) for 30 minutes at 4° C., followed by incubation with anti-mouse APC (dil 1:500, BDBiosciences, cat. no. 550826) for 30 minutes at 4° C. The tubes were washed three times after each of the detection antibody stages and flow cytometry analysis was performed. Specific mean fluorescence intensity (MFI) obtained from the binding of DcR3-His to LIGHT on EL4 cells were used to determine the levels of competition binding.
In humans, LIGHT is neutralized by DcR3, a unique soluble member of the TNFR superfamily, which tightly binds LIGHT (both soluble and membrane forms) and inhibits its interactions with HVEM and LTβR. A major binding determinant for DcR3 neutralization is the region T170-E178 on LIGHT (Liu et al. Structure 2014: 9; 1252-1262). […] In contrast the anti-LIGHT mAb F19, (from EP2292663) which binds both soluble LIGHT and membrane LIGHT equally well completely displaces DcR3 from binding to membrane LIGHT highlighting a surprising an important functional difference between the anti-membrane LIGHT mAbs of this invention and other neutralizing anti-LIGHT mAbs that have been raised against or screened against soluble LIGHT.

| Binder | IC50, nM soluble LIGHT (5 ng/ml; IL-8 release from HT-29 cells) [1] [nM] | IC50, nM membrane LIGHT (IL-8 release from HT-29 cells) [2] [nM] | binding, % of WT (membrane LIGHT S193A) [%] | binding, % of WT (membrane LIGHT R195A) [%] | binding, % of WT (membrane LIGHT V196A) [%] | EC50 [3] [nM] | DcR3-His binding, % of irrelevant mAb [4] [%] |
| --- | --- | --- | --- | --- | --- | --- | --- |
| 3A07 (antibody, human IgG4, V domains shown, chimeric human IgG4 (S-to-P, L-to-E at 248), human CL; also called Parental 3A07) VH: QVQLQQSGAELVRPGAPVTLSCKASDYTFTDSEIHWVKQTPVHGLEWIGEIDPETGGTAYNQKFKGKATLTADKSSSTAYMELRSLTSEDSAVYYCSRETDYFFDYWGQGTTLTVSS VL: ENVLTQSPAIMSASPGEKVTMTCSASSSVSYMYWYQQRPGSSPRLLIYDTSNLASGVPVRFSGSGSGTSYSLTISRMEAEDAATYYCQQWSSYPLTFGSGTKLEIK | > 100 | 2 | 0 | 15 | 77 | 0.1 | 64.2 |
| 3B04 (antibody, human IgG4, V domains shown, chimeric: mouse variable domains on human IgG4 HC (S-to-P and L-to-E at 248) and human CL; also called Parental 3B04; 3B04 chimeric) VH: QVQLQQPGAELVRPGASVTLSCKASGYTFTDYEMHWVKQTPVHGLEWIGEIDPETGDTAYSQKFKGKATLTADKSSSTAYMEFRSLTSEDSAVYYCSRETDYFFDYWGQGTTLTVSS VL: DIQMTQTPASLSASVGETVTITCGASENIYGALNWYQRKQGKSPQLLIYGATNLADGMSSRFSGSGSGRQYSLKISSLHPDDFATYYCQNVLTTPWTFGGGTKLEIKR | 6.5 | 0.15 | 0 | 1 | 80 | 0.2 | 75.8 |
| 2E08 (antibody, human IgG4, V domains shown, chimeric human IgG4 (S-to-P, L-to-E at 248), human CL; also called Parental 2E08) VH: QVQMKESGAELVRPGVSVKISCKGSGYTFTDYAIHWVKQSHAKTLEWIGVISTYYGDASYNQKFKGKATMTVDKSSSTAYMELARLTSDDSAIYYCARSRGEYGNYDAMDYWGQGTSVTVSS VL: DIVLTQSPASLAVSLGQRATISCKASQSVDYDGDSYMNWYQQKPGQPPKLLIYAASNLESGIPARFSGSGSGTDFTLNIHPVEEEDAATYYCQQSNEDPLTFGAGTKLELK | > 100 | 1.8 | 0 | 43 | 99 | 0.3 | 53.7 |
| 2B11 (antibody, human IgG4, V domains shown, chimeric human IgG4 (S-to-P, L-to-E at 248), human CL; also called Parental 2B11) VH: EVQLVESGAELVRPGVSVKISCKGSGYTFTDYAIHWVKQSHAKSLEWIGVISTYYGDASYNQKFKGKATMTVDKSSSTAYMELARLTSEDSAIYYCARSRGEYGNYDAMDYWGQGTSVTVSS VL: DIVLTQSPASLAVSLGQRATISCRASESVDSYGNSFMHWYQQKPGQPPKLLIYRASNLESGIPARFSGSGSRTDFTLTINPVEADDVATYYCQQSNEDPYTFGGGTKLEIK | 47 | 0.55 | 0 | 78 | 73 | 0.4 | 70.6 |
| 3E09 (antibody, V domains shown, chimeric human IgG4 (S-to-P, L-to-E at 248), human CL; also called Parental 3E09) VH: EVQLVESGGGLVKPGGSLKLSCEASGFTFSDYYMYWVRQTPEKRLEWVAAIGDGGIYTYYADTVKGRFTISRDNAKNILYLQMSSLKSNDTAMYYCARGTGDGFAYWGQGTLVTVS VL: DIVLTQSPASLAVSLGQRATISCRASESVDSYGNSFMHWYQQKPGQPPKLLIYLASNLESGVPARFSGSGSRTDFTLTIDPVEADDAATYYCQQNNEDPYTFGGGTKLEIK | – | – | 0 | 1 | 34 | 1.3 | 65 |

Further lines, results first:

| IC50, nM soluble LIGHT (5 ng/ml; IL-8 release from HT-29 cells) [1] [nM] | IC50, nM membrane LIGHT (IL-8 release from HT-29 cells) [2] [nM] | binding, % of WT (membrane LIGHT S193A) [%] | binding, % of WT (membrane LIGHT R195A) [%] | binding, % of WT (membrane LIGHT V196A) [%] | EC50 [3] [nM] | DcR3-His binding, % of irrelevant mAb [4] [%] | Binder |
| --- | --- | --- | --- | --- | --- | --- | --- |
| > 100 | 1.9 | 0 | 6 | 78 | 0.2 | 63.8 | 3C10 (antibody, human IgG4, V domains shown, chimeric human IgG4 (S-to-P, L-to-E at 248), human CL; also called Parental 3C10) VH: EVQLQQSGAELVRPGASVTLSCKASDYTFTDSEIHWVKQTPVHGLEWIGEIDPETGGTAYNQKFKGKATLTADKSSSTAYMELRSLTSEDSAVYYCSRETDYFFDYWGQGTTLTVSS VL: DVVMTQTPAIMSASPGEKVTMTCSASSSVSYMYWYQQKPGSSPRLLIYDTSNLASGVPVRFSGSGSGTSYSLTISRMEAEDAATYYCQQWSSYPLTFGAGTKLELK |
| 3.4 | 0.1 | 0 | 25 | 70 | 0.2 | 80.3 | 3D12 (antibody, human IgG4, V domains shown, chimeric: mouse variable domains on human IgG4 HC (S-to-P and L-to-E at 248) and human CL; also called Parental 3D12; 3D12 chimeric) VH: QVQLQQPGAELVRPGASVTLSCKASDYTFTDSEIHWVKQTPVHGLEWIGEIDPETGGTAYNQKFKGKATLTADKSSSTAYMELRSLTSEDSAVYYCSRETDYFFDYWGQGTTLTVSS VL: DIQMTQSPASLSASVGETVTITCGASENIYGALNWYQRKQGKSPQLLIYGATNLADGMSSRFSGSGSGRQYSLKISSLHPDDVATYYCQNVLSTPWTFGGGTKLEIKR |
